Literature values as cited in paper PMC4184467.

Tested on: Lys64
Settings: wild-type enzyme, zinc-bound

Substance: Carbonic anhydrase III (CA III) (Homo sapiens)
- pKa: 9.0
